According to article PMC3359993:
Where two headings read alike, the source gives them in different places.

Assays:
[1] = target: Relish, truncated (RHD, NLS and 20 additional C-terminal residues), StrepTagII-tagged (Drosophila melanogaster); test: SEC; gel filtration of each purified recombinant protein, compared with molecular mass standards
[2] = target: T1, Ank-H4 of Microplitis demolitor bracovirus, full length, N-terminal His tag (Microplitis demolitor bracovirus (MdBV)); test: SPR; Biacore 3000, room temperature; IkB or Ank immobilised on CM5 by amine coupling (about 5500 RU); Rel homodimer as analyte, kinetic titration, five doubling injections (typically 160 nM to 2.56 uM), 60 or 90 s, 30 uL/min; 10 mM HEPES pH 7.4, 150 mM NaCl, 3.4 mM EDTA, 0.005% P20; 1:1 Langmuir …
T1 sequence (Q5I144 whole entry): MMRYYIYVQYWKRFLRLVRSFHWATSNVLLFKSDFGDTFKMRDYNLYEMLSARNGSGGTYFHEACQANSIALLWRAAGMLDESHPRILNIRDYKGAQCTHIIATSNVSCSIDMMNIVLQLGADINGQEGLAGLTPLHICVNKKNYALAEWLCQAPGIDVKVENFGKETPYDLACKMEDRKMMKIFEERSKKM

[3] = target: Ank-N5 of Microplitis demolitor bracovirus, full length, N-terminal His tag (Microplitis demolitor bracovirus (MdBV)); test: as above
Ank-N5 of Microplitis demolitor bracovirus, full length, N-terminal His tag (Microplitis demolitor bracovirus (MdBV)), sequence (Q5I126 whole entry, the tested form may be a part): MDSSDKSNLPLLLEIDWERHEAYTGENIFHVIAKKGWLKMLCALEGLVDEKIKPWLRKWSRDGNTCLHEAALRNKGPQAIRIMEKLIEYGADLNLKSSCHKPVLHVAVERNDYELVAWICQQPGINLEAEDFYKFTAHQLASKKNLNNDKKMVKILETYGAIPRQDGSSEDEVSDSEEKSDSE

[4] = target: T2, Rel-49, the C-terminal IkB domain of Relish, N-terminal StrepTagII and C-terminal His tag (Drosophila melanogaster); test: as above
T2 sequence (Q94527 whole entry, looked up): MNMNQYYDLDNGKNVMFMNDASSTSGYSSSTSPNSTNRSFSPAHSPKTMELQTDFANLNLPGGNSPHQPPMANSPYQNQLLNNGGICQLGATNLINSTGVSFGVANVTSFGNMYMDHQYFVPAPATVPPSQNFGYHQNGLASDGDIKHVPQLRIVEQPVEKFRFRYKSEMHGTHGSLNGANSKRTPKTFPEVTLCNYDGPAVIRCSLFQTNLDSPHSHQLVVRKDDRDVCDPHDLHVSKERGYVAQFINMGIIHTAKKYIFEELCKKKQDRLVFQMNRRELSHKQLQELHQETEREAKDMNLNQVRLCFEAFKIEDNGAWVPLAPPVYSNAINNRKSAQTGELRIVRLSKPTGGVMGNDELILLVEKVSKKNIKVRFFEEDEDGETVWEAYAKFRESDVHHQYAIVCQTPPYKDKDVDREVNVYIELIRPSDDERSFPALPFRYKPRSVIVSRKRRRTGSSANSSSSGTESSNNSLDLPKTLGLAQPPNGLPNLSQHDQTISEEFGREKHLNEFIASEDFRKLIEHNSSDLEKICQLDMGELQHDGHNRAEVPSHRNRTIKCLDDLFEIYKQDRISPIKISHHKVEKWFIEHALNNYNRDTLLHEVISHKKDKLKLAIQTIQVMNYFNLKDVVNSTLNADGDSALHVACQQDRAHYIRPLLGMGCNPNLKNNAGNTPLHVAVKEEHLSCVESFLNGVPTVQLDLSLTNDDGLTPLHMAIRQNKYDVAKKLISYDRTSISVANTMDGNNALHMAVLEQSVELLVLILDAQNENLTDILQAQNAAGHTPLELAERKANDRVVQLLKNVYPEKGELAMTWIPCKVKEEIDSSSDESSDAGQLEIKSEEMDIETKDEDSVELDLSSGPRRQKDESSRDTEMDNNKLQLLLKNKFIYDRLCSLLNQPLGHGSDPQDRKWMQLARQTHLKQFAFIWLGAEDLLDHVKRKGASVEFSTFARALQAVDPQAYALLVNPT

[5] = target: Relish, truncated (RHD, NLS and 20 additional C-terminal residues), N-terminal thioredoxin fusion (Drosophila melanogaster); test: SEC; gel filtration of each purified recombinant protein, compared with molecular mass standards
[6] = target: Dorsal, truncated (RHD, NLS and 20 additional C-terminal residues), StrepTagII-tagged (Drosophila melanogaster); test: as above
[7] = target: T1, Ank-H4 of Microplitis demolitor …; test: SPR; Biacore 3000, room temperature; IkB or Ank immobilised on CM5 by amine coupling (about 5500 RU); Rel homodimer as analyte, kinetic titration, five doubling injections (typically 160 nM to 2.56 uM), 60 or 90 s, 30 uL/min; 10 mM HEPES pH 7.4, 150 mM NaCl, 3.4 mM EDTA, 0.005% P20; 1:1 Langmuir …; remark: listed apart in the source
[8] = target: Dorsal, truncated (RHD, NLS and 20 additional C-terminal residues), N-terminal thioredoxin fusion (Drosophila melanogaster); test: SEC; gel filtration of each purified recombinant protein, compared with molecular mass standards

B1: Relish, truncated (RHD, NLS and 20 additional C-terminal residues), StrepTagII-tagged (domain or fragment)
chain: KHVPQLRIVEQPVEKFRFRYKSEMHGTHGSLNGANSKRTPKTFPEVTLCNYDGPAVIRCSLFQTNLDSPHSHQLVVRKDDRDVCDPHDLHVSKERGYVAQFINMGIIHTAKKYIFEELCKKKQDRLVFQMNRRELSHKQLQELHQETEREAKDMNLNQVRLCFEAFKIEDNGAWVPLAPPVYSNAINNRKSAQTGELRIVRLSKPTGGVMGNDELILLVEKVSKKNIKVRFFEEDEDGETVWEAYAKFRESDVHHQYAIVCQTPPYKDKDVDREVNVYIELIRPSDDERSFPALPFRYKPRSVIVSRKRRRTGSSANSSSSGTESSNNSLD
modifications: not checked
Question: With B1 as the binder, how does the stoichiometry N [1] read?
Answer: Its stoichiometry N is 2.

Question: And the Kd [2]?
Answer: The Kd was 345 nM.

Question: And the koff [2]?
Answer: Its koff is 0.0067 s⁻¹.

Question: And the kon [2]?
Answer: Its kon is 19400 M⁻¹ s⁻¹.

Question: And the Kd [3]?
Answer: Its Kd is 30300 nM.

Question: And the koff [3]?
Answer: Its koff is 0.00179 s⁻¹.

Question: What about the kon [3] of the same binder?
Answer: The kon was 59 M⁻¹ s⁻¹.

Question: And the Kd [4]?
Answer: The Kd was 2750 nM.

Question: What about the koff [4] of the same binder?
Answer: The koff was 0.00378 s⁻¹.

Question: What about the kon [4] of the same binder?
Answer: The kon was 1380 M⁻¹ s⁻¹.

B2: Relish, truncated (RHD, NLS and 20 additional C-terminal residues), N-terminal thioredoxin fusion (domain or fragment)
chain: KHVPQLRIVEQPVEKFRFRYKSEMHGTHGSLNGANSKRTPKTFPEVTLCNYDGPAVIRCSLFQTNLDSPHSHQLVVRKDDRDVCDPHDLHVSKERGYVAQFINMGIIHTAKKYIFEELCKKKQDRLVFQMNRRELSHKQLQELHQETEREAKDMNLNQVRLCFEAFKIEDNGAWVPLAPPVYSNAINNRKSAQTGELRIVRLSKPTGGVMGNDELILLVEKVSKKNIKVRFFEEDEDGETVWEAYAKFRESDVHHQYAIVCQTPPYKDKDVDREVNVYIELIRPSDDERSFPALPFRYKPRSVIVSRKRRRTGSSANSSSSGTESSNNSLD
modifications: not checked
Question: B2 was tested. Which stoichiometry N [5] did it give?
Answer: Its stoichiometry N is 2.

B3: Dorsal, truncated (RHD, NLS and 20 additional C-terminal residues), StrepTagII-tagged (domain or fragment)
chain: PYVKITEQPAGKALRFRYECEGRSAGSIPGVNSTPENKTYPTIEIVGYKGRAVVVVSCVTKDTPYRPHPHNLVGKEGCKKGVCTLEINSETMRAVFSNLGIQCVKKKDIEAALKAREEIRVDPFKTGFSHRFQPSSIDLNSVRLCFQVFMESEQKGRFTSPLPPVVSEPIFDKKAMSDLVICRLCSCSATVFGNTQIILLCEKVAKEDISVRFFEEKNGQSVWEAFGDFQHTDVHKQTAITFKTPRYHTLDITEPAKVFIQLRRPSDGVTSEALPFEYVPMDSDPAHLRRKRQKTGGDPMHLLLQQQQKQQLQN
modifications: not checked
Question: How did the stoichiometry N [6] turn out when B3 was run?
Answer: The stoichiometry N was 2.

Question: What about the Kd [2] of the same binder?
Answer: The Kd was 858 nM.

Question: And the koff [2]?
Answer: The koff was 0.0067 s⁻¹.

Question: And the kon [2]?
Answer: Its kon is 7810 M⁻¹ s⁻¹.

Question: What about the Kd [3] of the same binder?
Answer: The Kd was 416 nM.

Question: And the koff [3]?
Answer: The koff was 0.003 s⁻¹.

Question: What about the kon [3] of the same binder?
Answer: Its kon is 7230 M⁻¹ s⁻¹.

Question: And the Kd [4]?
Answer: The Kd was 783 nM.

Question: What about the koff [4] of the same binder?
Answer: Its koff is 0.00645 s⁻¹.

Question: And the kon [4]?
Answer: The kon was 8240 M⁻¹ s⁻¹.

Question: What about the Kd [7] of the same binder?
Answer: Its Kd is 858000 nM.

B4: Dorsal, truncated (RHD, NLS and 20 additional C-terminal residues), N-terminal thioredoxin fusion (domain or fragment)
chain: PYVKITEQPAGKALRFRYECEGRSAGSIPGVNSTPENKTYPTIEIVGYKGRAVVVVSCVTKDTPYRPHPHNLVGKEGCKKGVCTLEINSETMRAVFSNLGIQCVKKKDIEAALKAREEIRVDPFKTGFSHRFQPSSIDLNSVRLCFQVFMESEQKGRFTSPLPPVVSEPIFDKKAMSDLVICRLCSCSATVFGNTQIILLCEKVAKEDISVRFFEEKNGQSVWEAFGDFQHTDVHKQTAITFKTPRYHTLDITEPAKVFIQLRRPSDGVTSEALPFEYVPMDSDPAHLRRKRQKTGGDPMHLLLQQQQKQQLQN
modifications: not checked
Question: With B4 as the binder, how does the stoichiometry N [8] read?
Answer: Its stoichiometry N is 2.
